Sequences and labels used below:
B1: 4B7 HC N32D+D62Q+H107M+Y112D/LC S32R+D33F (Fab, V domains shown)
VH: QVQLQQSGPGLVKPSQTLSLTCAISGDSVSSDSAAWSWIRQSPGRGLEWLGIIYKRSKWYNQYAVSVKSRITINPDTSKNQFSLQLNSVTPEDTAVYYCARWHSDKMWGFDDWGQGTLVTVSS
VL: DIVMTQSPLSLPVTPGEPASISCRSSQSLVFRFGNTYLNWYLQKPGQSPQLLIYKGSNRASGVPDRFSGSGSGTDFTLKISRVEAEDVGVYYCQQYDSYPLTFGQGTKVEIKR
B2: 4B7 HC N32D+D62Q+Y112D/LC S32R+D33F+N35I+D97T (Fab, V domains shown)
VH: B1 VH with M107H
VL: B1 VL with N35I, D97T
B3: 4B7 HC N32D+D62Q+Y112D/LC S32R+D33R+N35I (Fab, V domains shown)
VH: B1 VH with M107H
VL: B1 VL with F33R, N35I
B4: 4B7 HC N32D+D62Q+Y112D/LC F31M+S32R+D33F+N35I (Fab, V domains shown)
VH: B1 VH with M107H
VL: B1 VL with F31M, N35I
B5: 4B7 HC N32D+D62Q+Y112D/LC F31I+D33F+N35I+T36N (Fab, V domains shown)
VH: B1 VH with M107H
VL: B1 VL with F31I, R32S, N35I, T36N
B6: 4B7 HC N32D+D62Q+H107M+Y112D/LC S32R+D33R (Fab, V domains shown)
VH: B1 VH
VL: B1 VL with F33R
B7: 4B7 HC N32D+D62Q+Y112D/LC F31I+D33F+N35I+S98H (Fab, V domains shown)
VH: B1 VH with M107H
VL: B1 VL with F31I, R32S, N35I, S98H
B8: 4B7 HC N32D+D62Q+Y112D/LC S32R+D33R+N35I+D97T (Fab, V domains shown)
VH: B1 VH with M107H
VL: B1 VL with F33R, N35I, D97T
B9: 4B7 HC N32D+D62Q+Y112D/LC V30L+F31I+D33F+N35I (Fab, V domains shown)
VH: B1 VH with M107H
VL: B1 VL with V30L, F31I, R32S, N35I
B10: 4B7 HC N32D+D62Q+H107M+Y112D/LC S32R+N35T (Fab, V domains shown)
VH: B1 VH
VL: B1 VL with F33D, N35T
B11: 4B7 HC N32D+D62Q+Y112D/LC F31I+D33F+N35I+D97T (Fab, V domains shown)
VH: B1 VH with M107H
VL: B1 VL with F31I, R32S, N35I, D97T
B12: 4B7 HC N32D+D62Q+H107M+Y112D/LC S32R+D33F+N35I (Fab, V domains shown)
VH: B1 VH
VL: B1 VL with N35I
B13: 4B7 HC N32D+D62Q+Y112D/LC F31I+D33F+N35I+L42Q (Fab, V domains shown)
VH: B1 VH with M107H
VL: B1 VL with F31I, R32S, N35I, L42Q
B14: 4B7 HC N32D+D62Q+Y112D/LC F31I+D33F+N35I+K44R (Fab, V domains shown)
VH: B1 VH with M107H
VL: B1 VL with F31I, R32S, N35I, K44R

Positions count from the first letter of the chain named. In names and notes the source's numbering stands.

The results in this text go back to USRE47150 (Bayer, dated 2018).

One assay addresses T1, human tissue factor pathway inhibitor (TFPI) (human, UniProt P10646 29-304, limits assumed).
T1 construct: bought; also called hTFPI; human TFPI
T1 sequence (looked up): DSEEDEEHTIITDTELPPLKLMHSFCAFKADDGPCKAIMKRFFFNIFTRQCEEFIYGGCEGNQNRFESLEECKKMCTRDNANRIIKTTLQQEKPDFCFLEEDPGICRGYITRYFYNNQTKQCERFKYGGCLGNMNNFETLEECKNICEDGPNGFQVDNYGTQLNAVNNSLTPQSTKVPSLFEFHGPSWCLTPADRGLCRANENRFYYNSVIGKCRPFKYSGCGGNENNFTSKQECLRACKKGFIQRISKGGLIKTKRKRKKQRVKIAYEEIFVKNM
Kind of assay: competitive ELISA. For orientation: ELISA stands for enzyme-linked immunosorbent assay.
In turn, B1 had a variant/HC_D62R of 23.2 ratio.
The same measure, in the same setting: next, B2: 23.2 ratio; B3: 21.4 ratio.
B4: the variant/HC_D62R is 20.8 ratio.
The same measure, in the same setting: with B5 the figure was 27.3 ratio; with B6, 24.9 ratio.
Same read-out and setting: with B7 the figure was 13.5 ratio; with B8, 17.2 ratio; with B9, 22.9 ratio.
In turn, B10 came in with a variant/HC_D62R of 25 ratio.
The molecule B11 registered a variant/HC_D62R of 14.4 ratio.
Still for that read-out and setting: with B12 the figure was 24.7 ratio; with B13, 21.4 ratio; with B14, 22.8 ratio.

Another assay concerns the target T2, mouse tissue factor pathway inhibitor (TFPI) (mouse, UniProt O54819 29-289, limits assumed).
T2 construct: bought; also called mTFPI; murine TFPI
T2 sequence (looked up): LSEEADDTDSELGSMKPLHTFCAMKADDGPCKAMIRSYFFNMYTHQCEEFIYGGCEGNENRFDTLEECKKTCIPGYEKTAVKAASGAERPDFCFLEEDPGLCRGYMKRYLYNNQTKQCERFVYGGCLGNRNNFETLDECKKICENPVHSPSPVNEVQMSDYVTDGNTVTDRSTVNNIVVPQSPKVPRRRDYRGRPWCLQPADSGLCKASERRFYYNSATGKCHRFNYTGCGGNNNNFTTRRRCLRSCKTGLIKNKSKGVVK
As to the kind of experiment: competitive ELISA.
Molecule B1 returned a variant/HC_D62R of 16.9 ratio.
The molecule B2 registered a variant/HC_D62R of 40 ratio.
For B3, the variant/HC_D62R turned out to be 23.5 ratio.
B4 registered a variant/HC_D62R of 15.8 ratio.
Regarding B5, the variant/HC_D62R was found to be 46.3 ratio.
Regarding B6, the variant/HC_D62R is 24.7 ratio.
B7: the binding result is recorded as “no binding”.
Consider B8, for which the variant/HC_D62R turned out to be 13.4 ratio.
The molecule B9 showed a variant/HC_D62R of 24.6 ratio.
The molecule B10 gave a variant/HC_D62R of 27.1 ratio.
Consider B11, for which the variant/HC_D62R stood at 4.6 ratio.
With B12, the variant/HC_D62R came out at 46.6 ratio.
Still for that read-out and setting: next, B13: 16.7 ratio; B14: 18.5 ratio.
